Test results published in patent US11124558B2, “Use of tetranectin and peptide agonists to treat inflammatory diseases” (The Feinstein Institutes for Medical Research, priority 2017, dated 2021).

Legend:
[1] = system: HMGB1 release, human peripheral blood mononuclear cells (HuPBMCs); experiment: LPS- or SAA-induced HMGB1 release in primary human peripheral blood mononuclear cells (Western blotting); assay type: cell-based; details: for inhibition of LPS- or SAA-induced HMGB1 release: HuPBMCs / human monocytes, 16 h, TN from HEK293 or E. coli
Experimental: (§1) A, B, Primary murine peritoneal macrophages. C, Primary human peripheral blood mononuclear cells (HuPBMCs). Murine macrophages or human monocytes (HuPBMCs) were cultured in serum-free OPTI-MEM I medium, and stimulated with LPS or SAA for 16 h at the indicated concentrations. The extracellular HMGB1 levels were determined by Western blotting, and expressed as % of maximal stimulation by LPS or SAA alone.
(§2) Immune-modulating properties of tetranectin: To explore TN's immune-modulating properties, its effects on the LPS- and SAA-induced HMGB1 release were examined in murine macrophage and human monocyte cultures. […] This inhibition was TN-dose-dependent, evident at concentrations as low as 5.0 μg/ml, and became more dramatic (with 50-100% inhibition) at higher doses.
(§3) Effects of TN on the LPS-, IFN-γ-, or SAA-induced HMGB1 release. To elucidate the regulatory mechanisms of HMGB1 release, we will examine the impact of TN and its peptide agonists on the HMGB1 release induced by a wide array of inflammatory stimuli including the crude LPS [75], IFN-γ [76] and SAA [77], in macrophage and monocyte cultures. Primary peritoneal macrophages will be isolated from the Balb/C mice (both male and female, 7-8 weeks, 20-25 g) at 2-3 days after intraperitoneal injection of 2 ml thioglycollate broth (4%, Difco, Detroit, Mich.) as previously described. Human peripheral blood mononuclear cells (HuPBMCs) will be isolated from human blood obtained from the Long Island Blood Bank (NY) by density gradient centrifugation through Ficoll as previously described. At 80-90% confluence, macrophage/monocyte cultures will be stimulated with the crude LPS (Cat. No. L3012, Sigma-Aldrich), IFN-γ (Cat. No. 14777, Sigma-Aldrich), or SAA (Cat. No. 300-13, PeproTech) at different concentrations and for various time periods. The extracellular levels of HMGB1 in the culture medium will be determined by Western blotting as previously described.

[2] = system: HMGB1 release; experiment: LPS/SAA-induced HMGB1 release, summary statement (cells not specified); assay type: cell-based
[3] = system: circulating D-dimer, endotoxemic Balb/C mice; experiment: Plasma D-dimer level in endotoxemic mice (ELISA); assay type: in vivo; details: 24 h post endotoxemia
Experimental: Venous blood was obtained from normal healthy and endotoxemic, Balb/C mice at 24 h post endotoxemia in the absence or presence of recombinant TN. The plasma level of fibrin degradation product (FDP's, e.g., D-dimer) was measured using commercial ELISA kit (Cat. No. EKU03631, Biomatik) as per the manufacturers' instructions. *, P<0.05 as compared to the positive control (+LPS alone).
In light of HMGB1's key role in the platelet activation/aggregation and its possible interaction with TN protein, the impact of TN or TN-specific peptide agonists on the pro-fibrinolytic activities is evaluated by measuring the plasma level of fibrin degradation products (FDP's, e.g., D-dimer) using commercial ELISA kits (Cat. No. EKU03631, Biomatik) as per the manufacturers' instructions. A parallel elevation of D-dimer levels is indicative of a possible acceleration of the fibrinolysis cascade by the TN treatment. However, a decrease in the D-dimer concentration is indicative of a reduction of either the plasmin-mediated fibrinolysis or the thrombin-mediated coagulation. […] Given the complex roles of fibrinolysis in sepsis, therapeutic agents that could control coagulation/fibrinolysis balance, while maintaining the host defense at the infectious foci, can be useful for understanding the complex pathogenesis of lethal systemic inflammatory diseases.

[4] = molecular target: apolipoprotein A1 (Apo-A1); details: ref [58]; read-out: Kd of TN binding to Apo-A1; cited from earlier work
[5] = system: lethal endotoxemia, Balb/C mice; experiment: Lethal endotoxemia (LPS) survival in mice; assay type: in vivo; details: LPS 5 mg/kg i.p., male Balb/C mice, TN given i.p., survival monitored more than two weeks
Experimental: FIG. 6A-6C: Recombinant TN protected mice against lethal endotoxemia and sepsis. Male Balb/C mice were subjected to lethal endotoxemia (LPS, 5 mg/kg, i.p., Panel A) or sepsis by cecal ligation and puncture (CLP, Panel B, C), and recombinant TN produced in HEK293 (Panel A, B) or E. coli (Panel C) was given intraperitoneally at indicated dosing regimens. Animal survival rates were monitored for more than two weeks to ensure no later death. Shown in Panel B and C is a summary of two independent experiments with similar results.
Effects of TN or peptide agonist on LSI. Balb/C mice (both male and female, 7-8 weeks, 20-25 g) are subjected to lethal endotoxemia or sepsis as described above, and the recombinant TN is injected (i.p.) at various doses and time points (2, 24, and 48 h) after the onset of endotoxemia or sepsis. Their effects on the outcomes of LSI is assessed by comparing the long-term (two-week) survival rates between the TN-treated groups with saline vehicle-treated controls. By varying the time points (e.g., 2, 12, 24 or 36 h) when the first dose of TN will be given to animals, the therapeutic windows for the TN-based therapy is estimated. […] It will be critical to continue these exciting experiments using other dosing regimens to further validate TN's protective role in LSI.
Effects of TN or peptide agonist supplementation on LSI. Balb/C mice (both male and female, 7-8 weeks, 20-25 g) are subjected to lethal endotoxemia or sepsis as described above, and the recombinant TN will be injected (i.p.) at various doses and time points (2, 24, and 48 h) after the onset of endotoxemia or sepsis. Their effects on the outcomes of LSI will be assessed by comparing the long-term (two-week) survival rates between the TN-treated groups with saline vehicle-treated controls. By varying the time points (e.g., 2, 12, 24 or 36 h) when the first dose of TN will be given to animals, the therapeutic windows for the TN-based therapy will be estimated.

[6] = system: HMGB1 release, primary murine peritoneal macrophages; experiment: LPS- or SAA-induced HMGB1 release in primary murine peritoneal macrophages (Western blotting); assay type: cell-based; details: for inhibition of LPS- or SAA-induced HMGB1 release: primary murine peritoneal macrophages, 16 h, serum-free OPTI-MEM I, TN from HEK293 or E. coli
Experimental: as §1, §2, §3

[7] = listed as recombinant human TN protein

B1: tetranectin (protein, listed as Homo sapiens)
chain: EPPTQKPKKIVNAKKDVVNTKMFEELKSRLDTLAQEVALLKEQQALQTVCLKGTKVHMKCFLAFTQTKTFHEASEDCISRGGTLGTPQTGSENDALYEYLRQSVGNEAEIWLGLNDMAAEGTWVDMTGARIAYKNWETEITAQPDGGKTENCAVLSGAANGKWFDKRCRDQLPYICQFGIV
With B1 the “inhibition of LPS- or SAA-induced HMGB1 release” value [1] was “dose-dependently inhibited”, the “inhibition of LPS- or SAA-induced HMGB1 release” value [1, 7] was “capable of inhibiting” and the “lowest concentration at which inhibition of HMGB1 release was evident” value ([1]; human monocytes) was 5.0 µg/mL. For the same molecule, the “inhibition of HMGB1 release at higher doses” value ([1]; human monocytes, doses above 5.0 μg/ml) was 50-100%, the “attenuation of LPS/SAA-induced HMGB1 release” value [2] was “dose-dependently attenuated” and the “effect on endotoxin-induced elevation of circulating D-dimer levels” value ([3]; P<0.05 vs +LPS alone) was “significantly attenuated”. The “reduction of plasma D-dimer levels” value ([3]; at doses that conferred significant protection) was 40-50%, the Kd [4] was 13 nM and the “protection against lethal endotoxemia (animal survival)” value (“protection against lethal endotoxemia” for short) [5] was “significant protection”. For the same molecule, the “protection against lethal endotoxemia” value ([5]; listed as Recombinant TN) was “protected”, the “protection against lethal endotoxemia” value ([5]; listed as recombinant TN) was “significant protection” and the “effect on LPS- or SAA-induced release of most other cytokines (G-CSF, IL-6, IL-12) and chemokines (KC, LIX, MIP-1α, MIP-2, RANTES)” value ([6]; data not shown, cells not specified) was “did not inhibit”. The “lowest concentration at which inhibition of HMGB1 release was evident” value ([6]; murine macrophages) was 5.0 µg/mL, the “inhibition of LPS- or SAA-induced HMGB1 release” value [6] was “dose-dependently inhibited” and the “inhibition of LPS- or SAA-induced HMGB1 release” value [6, 7] was “capable of inhibiting”.
